Article PMC7602980 (Biomolecules, 2020)

B1: Cx43CL_(136-158) M147T peptide (peptide)
peptide: KYGIEEHGKVKTRGGLLRTYIIS
notes: connexin43 (Cx43) cytoplasmic loop, residues K136-S158, with the ODDD mutation M147T; ODDD-linked mutation that occurs in patients; No species is named for the synthetic peptides; source: synthetic peptide (LifeTein, 95% purity)
B2: Cx43CL_(136-158) R148Q peptide (peptide)
peptide: KYGIEEHGKVKMQGGLLRTYIIS
notes: connexin43 (Cx43) cytoplasmic loop, residues K136-S158, with the ODDD mutation R148Q; ODDD-linked mutation that occurs in patients; No species is named for the synthetic peptides; source: synthetic peptide (LifeTein, 95% purity)
B3: Cx43CL_(136-158) T154A peptide (peptide)
peptide: KYGIEEHGKVKMRGGLLRAYIIS
notes: connexin43 (Cx43) cytoplasmic loop, residues K136-S158, with the ODDD mutation T154A; ODDD-linked mutation that occurs in patients; No species is named for the synthetic peptides; source: synthetic peptide (LifeTein, 95% purity)

Target: T1, calmodulin (UniProt P0DP23 1-149)
T1 construct: calmodulin (CaM); Used 15N-labeled or unlabeled; also called CaM; source: expressed (cloned in pAED4 vector)
Assay: NMR titration; 15N-HSQC; 15N-labeled CaM at a constant concentration (30–100 μM), unlabeled ligand added (7.5 to 400 μM); KD by nonlinear fitting of chemical shift changes, average of at least six curves
Conditions: both partners purified

Binder	binding result
B1	binds
B2	binds
B3	binds
